Entries after “also recorded” stand apart in the source; their conditions may differ.
Columns and labels:
HUVECs and U937 cells = test: Heterotypic aggregation/adhesion between IFN-γ-treated HUVECs and U937 cells; format: cell-based, human
Experimental: HUVECs (1−5×10^4 cells/ml) were seeded onto a 12-well cell culture plate. After one day, the medium was exchanged with a low-serum medium containing 0.5% FBS, and the cells were pretreated with interferon-gamma (IFN-γ; Calbiochem) in a final concentration 10 ng/ml for 24 hrs. Then, the pretreated HUVECs were co-cultured with U937 cells (2×10^6 cells/ml, 500 μl) at 37° C. for 4 hrs. The co-culture was washed with phosphate buffer three or four times, and the remaining cells were fixed with 4% paraformaldehyde and microscopically observed.
HUVECs were transfected with an expression vector for Bst2, treated with or without IFN-γ and then transfected with Bst2 siRNA. These cells were assessed for U937 cell adhesion.
HUVECs were cultured in 12-well plates with or without transfection of Bst2 siRNA or control siRNA for 6 hr, then treated with or without IFNγ for 24 hr. In some experiments, cells were treated with crude media containing Bst2 decoy or mouse anti-human ICAM1 antibodies. After a wash with PBS (phosphate buffered saline), U937 cells were resuspended in serum free medium at 2×10^6 cells/ml. Assays were initiated by the addition of 200 ul U937 cells to HUVEC for a final volume of 1 ml. After 4 hr at 37° C., unbound U937 cells were removed by washing plates three times with PBS. Bound cells were fixed by the addition of 4% paraformaldehyde in PBS, and the bound cells were counted under microscopy in different fields. All statistical analyses were performed in Excel and statistical significance were evaluated with Student's t test. In some experiments, RNA samples were obtained from HUVECs after treatment with IFNγ and/or siRNAs, and real-time polymerase chain reaction (RT-PCR) analyses were performed.

Jurkat cells = test: Homotypic aggregation of Jurkat T cells activated with anti-CD3; format: cell-based, human; settings: pretreatment 30 min before activation with anti-CD3
Experimental: When Jurkat cells (5×10^5 cells/ml) were incubated with anti-CD3 monoclonal antibody (OKT3: 10 μg/ml, BD Pharmingen) at 4° C. for 20 min and then with anti-mouse immunoglobulin polyclonal antibody (25 μg/ml, Zymed) 37° C. for 1 hr, cell aggregation occurred, and the cells were activated and induced to produce interleukin-2 (IL-2) (FIGS. 10 and 11). According to the same method, when green fluorescent protein (GFP) overexpression was induced, there was no effect. In contrast, when Jurkat cells were transfected with a Bst2-overexpressing vector and were induced to activate, homotypic cell aggregation increased (FIG. 10, panel A). IL-2 mRNA levels upon T cell activation were measured by real-time RT-PCR (Example 3). IL-2 mRNA expression was elevated by about two times under Bst2 overexpression in comparison with GFP overexpression (FIG. 10, panel B).
Jurkat cells were pretreated with a Bst2 decoy 30 min before activation, were activated using anti-CD3 monoclonal antibody, and were evaluated for inhibition of cell aggregation. The cells were treated with a relative amount of serial dilutions of an animal cell culture fluid containing a Bst2 decoy. The size of aggregates was represented as a ratio to the size of aggregates of a non-treatment group.

interleukin-2 (IL-2) = test: IL-2 expression in activated Jurkat cells (real-time RT-PCR); format: cell-based, human; settings: 3-fold increased by Jurkat cell activation
Experimental: Intracellular expression levels of specific genes were analyzed by real-time quantitative RT-PCR using ABI Prism 7900HT (Applied Biosystems, Foster City, Calif.) and a SYBR-Green assay kit. Primers and probes used were designed using Primer Express software (Applied Biosystems).
10 ng of single-stranded cDNA was placed in a reaction tube and subjected to multiplex TaqMan PCR (50 μl) using the TaqMan Universal PCR Master Mix. The relative amount of target cDNA was calculated using the comparative cycle threshold (CT) method. PCR products were analyzed by agarose gel electrophoresis.
The relative levels of a specific gene A were expressed as a change compared to a control sample (untransfected cells). […] The above experiments were carried out to quantify the expression of the Bst2 gene and interleukin-2.
When Jurkat cells (5×10^5 cells/ml) were incubated with anti-CD3 monoclonal antibody (OKT3: 10 μg/ml, BD Pharmingen) at 4° C. for 20 min and then with anti-mouse immunoglobulin polyclonal antibody (25 μg/ml, Zymed) 37° C. for 1 hr, cell aggregation occurred, and the cells were activated and induced to produce interleukin-2 (IL-2) (FIGS. 10 and 11). […] IL-2 mRNA levels upon T cell activation were measured by real-time RT-PCR (Example 3). […]

[1] = system: TNCB-induced contact hypersensitivity; test: TNCB-induced contact hypersensitivity in mice; format: in vivo, Balb/c mice
Experimental: To evaluate efficacy of Bst2 decoy on allergic dermatitis, contact hypersensitivity was induced by repeated application of 2,4,6-trinitro-1-chlorobenzene (TNCB) in Balb/c mice. The mice were initially sensitized with 0.2 ml of 1% TNCB solution on day 0, Subsequent challenges of 0.2 ml of 0.2% TNCB solution was applied to the shaved backs of the animals 2-3 times per week from week 2 to week 6. By the end of week 6, all animal developed lesions on the dorsal skin treated with TNCB solution (FIGS. 40A-40C).
During week 7, 5 daily doses of Bst2 decoy were administered at 10 mg/kg to the animals by intravenous injection, and the animals were sacrificed for observation at the end of week 7.
H&E staining was performed on exposed skin sections.

CLP sepsis = CLP sepsis model: tissue and organ damage; format: in vivo, rat
From the text: A rat model of sepsis was induced through cecal ligation and puncture (CLP) as described previously (Wichterman K A, Baue A E, Chaudry I H: Sepsis and septic shock-a review of laboratory models and a proposal. J Surg Res 29:189-201, 1980). An incision was made along the midline of the abdomen on an anesthetized animal. The cecum was exteriorized, ligated and punctured with a stainless steel needle. An appropriate amount of fecal matter was then extruded. The gauge of the needle, number of punctures and amount of fecal matter extruded are all factors in determining the severity of sepsis and mortality. […] The incision was sutured and appropriate post-operative care was administered. Sham-operated animals were subjected to similar laparotomy and intestinal manipulation, however, the cecum was neither ligated nor punctured. Immediately or 6 hours after the CLP procedure, animals were given intravenous injection of vehicle or a Bst2 decoy.
Blood enzyme levels were measured at 6, 12, and 24 hours post-CLP (FIG. 49A-49D). Organ damage, as indicated by increased levels of alanine aminotransferase (ALT), aspartate aminotransferase (AST), blood urea nitrogen (BUN) and creatinine, was evident in all animals that underwent the CLP procedure.

B1: Bst2 decoy: soluble Bst2 protein fragment having the amino acid sequence of SEQ ID NO:1; extracellular region of human Bst2, six-histidine tag (protein)
chain: NSEACRDGLRAVMECRNVTHLLQQELTEAQKGFQDVEAQAATCNHTVMALMASLDAEKAQGQKKVEELEGEITTLNHKLQDASAEVERLRRENQVLSVRIADKKYYPSSQDHHHHHH
binding of U937 cells to IFNγ-treated HUVECs (HUVECs and U937 cells; Bst2 decoy-containing medium, IFN-γ 10 ng/ml 24 hrs, co-culture 4 hrs): decreased binding
dose dependence of effect in heterotypic cell aggregation/adhesion assay (HUVECs and U937 cells; IFNγ-treated HUVECs and U937 cells): dependent on concentrations; also recorded: dose-dependent response
aggregation of Jurkat cells (Jurkat cells): significant decrease
expression of IL-2 (interleukin-2 (IL-2)): decreased again to the basal level
recovery from TNCB-induced skin lesions ([1]; 10 mg/kg intravenous, 5 daily doses during week 7, vs vehicle alone): recovered much quicker
H&E staining of exposed skin sections ([1]; TNCB-treated mice): near-normal morphology with little signs of inflammation
blood levels of ALT, AST, BUN and creatinine (CLP sepsis; 6, 12 and 24 hours post-CLP): near-normal level
H&E staining of liver, kidney and lung sections (CLP sepsis; 24 post-CLP): protective effects against organ damage

— US8329186B2, “Treatment of inflammation using BST2 inhibitor” (Isu Abxis Co., Ltd, priority 2004, dated 2012)
